Reference: patent CN116410306A (ATTOGEN BIOMEDICAL SUZHOU INC LTD, dated 2023)

Key:
FLAG-HPV11 E6 [1] = target: T1, FLAG-HPV11 E6 (HPV11, UniProt P04019 1-150); experiment: sandwich ELISA; (HPV OD450 - 293T negative control)/HPV16 OD450, HPV16 E6 = 100%
T1 construct: Flag-E6 fusion protein from transfected 293T cell lysate, captured on a coated flag antibody
T1 sequence: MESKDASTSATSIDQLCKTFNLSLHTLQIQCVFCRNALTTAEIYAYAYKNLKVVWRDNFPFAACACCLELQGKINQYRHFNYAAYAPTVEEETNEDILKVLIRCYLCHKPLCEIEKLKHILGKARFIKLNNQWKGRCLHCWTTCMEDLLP

FLAG-HPV68 E6 [2] = target: T2, FLAG-HPV68 E6 (HPV68); experiment: as above
T2 construct: Flag-E6 fusion protein from transfected 293T cell lysate, captured on a coated flag antibody

FLAG-HPV6 E6 [3] = target: T3, FLAG-HPV6 E6 (HPV6, UniProt P06462 1-150); experiment: as above
T3 construct: Flag-E6 fusion protein from transfected 293T cell lysate, captured on a coated flag antibody
T3 chain: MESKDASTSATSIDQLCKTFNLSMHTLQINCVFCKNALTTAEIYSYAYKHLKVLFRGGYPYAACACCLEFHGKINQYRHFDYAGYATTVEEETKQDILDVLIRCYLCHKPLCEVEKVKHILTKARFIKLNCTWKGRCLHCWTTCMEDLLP

FLAG-HPV11 E6 [4] = target: T1, FLAG-HPV11 E6; experiment: sandwich ELISA: flag antibody capture of Flag-E6 from 293T lysate, A4F9 supernatant 1:1
FLAG-HPV68 E6 [5] = target: T2, FLAG-HPV68 E6; experiment: as above
FLAG-HPV6 E6 [6] = target: T3, FLAG-HPV6 E6; experiment: as above
FLAG-HPV18 E6 = target: T4, FLAG-HPV18 E6 (HPV18, UniProt P06463 1-158); experiment: sandwich ELISA: flag antibody capture of 293T lysate (fresh or liquid-based fixed)
T4 construct: Flag-E6 fusion protein from transfected 293T cell lysate, captured on a coated flag antibody; also called 可溶性蛋白HPV18 E6

Flag-HPV16 E6 = target: T5, Flag-HPV16 E6 (HPV16, UniProt P03126 1-158); experiment: as above
T5 chain: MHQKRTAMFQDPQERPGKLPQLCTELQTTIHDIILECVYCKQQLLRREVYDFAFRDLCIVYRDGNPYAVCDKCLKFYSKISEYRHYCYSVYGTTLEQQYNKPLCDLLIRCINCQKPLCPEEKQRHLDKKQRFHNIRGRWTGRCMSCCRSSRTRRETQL

[7] = target: T6, HPV18 E6蛋白 (宫颈癌细胞株Hela细胞内源表达) (HPV18, UniProt P06463 1-158, limits assumed); experiment: immunocytochemistry on fixed HeLa cells mixed with a negative clinical pool, DAB
T6 construct: whole, on cells; Intracellular protein in fixed cells, stained by immunocytochemistry; HeLa cells were mixed into a pool of negative clinical samples

FLAG-HPV11 E6 [8] = target: T1, FLAG-HPV11 E6; experiment: sandwich ELISA: flag antibody capture of 293T lysate, A4F9 supernatant 1:1
FLAG-HPV6 E6 [9] = target: T3, FLAG-HPV6 E6; experiment: as above
[10] = target: T7, HPV16 E6蛋白 (宫颈癌细胞株CaSki细胞内源表达) (HPV16, UniProt P03126 1-158); experiment: immunocytochemistry on fixed CaSki cells, DAB
T7 construct: whole, on cells; Intracellular protein in fixed cells (95% ethanol, EDTA heat retrieval), stained by immunocytochemistry; also called CaSki阳性标准对照细胞

T4 sequence (P06463 whole entry, the tested form may be a part): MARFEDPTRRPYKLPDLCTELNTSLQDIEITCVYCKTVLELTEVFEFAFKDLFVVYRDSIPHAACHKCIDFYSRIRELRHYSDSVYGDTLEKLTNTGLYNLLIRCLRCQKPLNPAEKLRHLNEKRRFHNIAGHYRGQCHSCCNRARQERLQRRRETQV
T6 sequence (P06463 whole entry): as the sequence (P06463 whole entry, the tested form may be a part) above

B1: 抗HPV E6兔源单克隆抗体 A4F9 (antibody, V domains shown)
VH: QEQLVESGGGLVQPEGSLTLTCTASGFSFSSSYWICWVRQAPGKGLEWIACIYSGDGDAYYASWAKGRFTISKTSSTTVTLQMTSLTAADTAAYFCARDRVYDSSSGHGLWGPGTLVTVSS
VL: DIVMTQTPFSVSAAAGGTVTINCQASENIYSNLAWYQQKPGQRPKLLIYGTSDLPSGVPSRFSGSGYGTEFTLTISDLECADAATYYCQSYYYRSSSAYGWDFGGGTEVVVK
notes: Rabbit monoclonal from single B cell cloning, tested as clone supernatant (rabbit IgG, detected with goat anti-rabbit-HRP); also called 克隆上清A4F9; A4F9克隆
%交叉活性 (FLAG-HPV11 E6 [1]): -5.2%
%交叉活性 (FLAG-HPV68 E6 [2]): 6.3%
%交叉活性 (FLAG-HPV6 E6 [3]): -6.3%
OD450 (FLAG-HPV11 E6 [4]): 0.1
OD450 (FLAG-HPV68 E6 [5]): 0.5
OD450 (FLAG-HPV6 E6 [6]): 0.1
binding result (FLAG-HPV18 E6): binds
binding result (Flag-HPV16 E6): binds
binding result [7]: binds
binding result (FLAG-HPV11 E6 [8]): no binding
binding result (FLAG-HPV6 E6 [9]): no binding
binding result [10]: binds
